This passage reports Kd results from PMC3750081.

First the molecules themselves.
B1: p53 codon 248 O6-POB-G:MeC base pair (dsDNA)
DNA 1: CATGAACCGGAGGCCCATC
DNA 2: GATGGGCCTCCGGTTCATG
modifications: O6-POB-dG at strand 1 position 9; 5-methyl-C at strand 2 position 11
B2: p53 codon 248 both MeC O6-POB-G (dsDNA)
DNA 1: CATGAACCGGAGGCCCATC
DNA 2: GATGGGCCTCCGGTTCATG
modifications: O6-POB-dG at strand 1 position 9; 5-methyl-C at strand 1 position 8 and strand 2 position 11
B3: p53 codon 158 5'-MeC O6-POB-G (dsDNA)
DNA 1: ACCCGCGTCCGCGCCATGGCC
DNA 2: GGCCATGGCGCGGACGCGGGT
modifications: O6-POB-dG at strand 1 position 11; 5-methyl-C at strand 1 position 10 (text; Table 4 marks lost)
B4: p53 codon 248 5'-MeC O6-POB-G (dsDNA)
DNA 1: CATGAACCGGAGGCCCATC
DNA 2: GATGGGCCTCCGGTTCATG
modifications: O6-POB-dG at strand 1 position 9; 5-methyl-C at strand 1 position 8
B5: p53 codon 248 O6-POB-G (dsDNA)
DNA 1: CATGAACCGGAGGCCCATC
DNA 2: GATGGGCCTCCGGTTCATG
modifications: O6-POB-dG at strand 1 position 9

Chain of AGT (O6-alkylguanine-DNA alkyltransferase) C145A (P16455 whole entry C145A): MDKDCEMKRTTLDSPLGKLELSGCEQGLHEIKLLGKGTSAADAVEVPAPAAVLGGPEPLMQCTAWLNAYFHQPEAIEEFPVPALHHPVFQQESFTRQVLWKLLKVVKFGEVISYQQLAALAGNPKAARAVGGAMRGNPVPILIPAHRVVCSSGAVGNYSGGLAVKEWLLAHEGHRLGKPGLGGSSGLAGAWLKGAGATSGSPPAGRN

The series concerns the target AGT (O6-alkylguanine-DNA alkyltransferase) C145A (Homo sapiens, UniProt P16455 1-207, C145A). The experiment in a line: EMSA.
One may read the Kd as the free concentration of one partner at which half of the binding sites on the other are occupied at equilibrium, for simple one-to-one binding. Read a low Kd as tighter binding. In turn, B1 displayed a Kd of 1800 ± 300 nM. B2 returned a Kd of 1000 ± 100 nM. Consider B3, for which binding was characterised by a dissociation constant (Kd) of 4800 ± 500 nM. This Kd lies about 4.8-fold higher than the previous one. The molecule B4 displayed a dissociation constant (Kd) of 2000 ± 200 nM. Molecule B5 had a Kd of 2200 nM.
